Measured values taken from patent publication US20230321192A1 (published 2023).
Residue numbers refer to the chain shown, from its start.

T1: Mouse IL-18BP (amino acids 31-194) (mouse, UniProt Q9Z0M9 29-193, biotin on the AviTag (BirA ligase))
T1 construct: Secreted from Expi293 cells (H7 signal peptide); also called mIL-18BP
T1 sequence: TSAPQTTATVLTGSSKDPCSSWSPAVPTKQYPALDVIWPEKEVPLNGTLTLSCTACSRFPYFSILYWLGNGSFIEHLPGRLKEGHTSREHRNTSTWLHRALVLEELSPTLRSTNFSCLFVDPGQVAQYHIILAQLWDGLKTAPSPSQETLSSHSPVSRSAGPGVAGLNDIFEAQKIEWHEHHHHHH

T2: Mouse IL-18Rα ectodomain (amino acids 19-329) (mouse, UniProt Q61098 19-329, biotin on the AviTag (BirA ligase))
T2 construct: range 19-329; Secreted from Expi293 cells (H7 signal peptide); also called mIL-18Rα; Ra
T2 sequence: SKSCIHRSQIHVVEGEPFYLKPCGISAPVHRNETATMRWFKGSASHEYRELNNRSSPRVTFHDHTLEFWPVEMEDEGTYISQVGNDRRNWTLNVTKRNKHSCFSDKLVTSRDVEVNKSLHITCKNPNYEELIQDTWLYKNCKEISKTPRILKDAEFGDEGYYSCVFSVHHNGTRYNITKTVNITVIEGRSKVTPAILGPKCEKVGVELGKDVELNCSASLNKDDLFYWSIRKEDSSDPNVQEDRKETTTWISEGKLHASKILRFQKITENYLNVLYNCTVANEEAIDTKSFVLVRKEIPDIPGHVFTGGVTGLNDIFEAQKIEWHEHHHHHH

T3: Human Interleukin-18 (mature form), wild-type (human, UniProt Q14116 37-193)
T3 sequence: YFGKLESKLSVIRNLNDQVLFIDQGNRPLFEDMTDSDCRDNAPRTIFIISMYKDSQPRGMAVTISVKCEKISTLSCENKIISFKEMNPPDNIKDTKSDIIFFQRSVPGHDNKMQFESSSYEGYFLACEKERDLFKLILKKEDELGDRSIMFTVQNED

B1: mA7 (ligand)
chain: YFGRLHCTTAVIRNINDQVLFVDKRQPVFEDMTDIDQSASEPQTRLIIYAYGDNRVRGKAVTLSVKDSKMSTLSCKNKIISFEEMDPPENIDDIQSDLIFFQKRVPGHNKMEFESSLYEGHFLACQKEDDAFKLILKKKDENGDKSVMFTLTNLHQS
notes: Murine DR-IL-18 variant; recombinant with C-terminal hexahistidine tag in SPR; fusion and tag not written
B2: mE8 (ligand)
chain: B1 chain with Y1N, A50V, G52T, N54G, V56R, R104K, N109D
notes: as for B1
B3: mCS2 (ligand)
chain: B1 chain with Y1H, N54S, V56A
notes: Murine DR-IL-18 consensus variant; recombinant with C-terminal hexahistidine tag in SPR; fusion and tag not written
B4: mC1 (ligand)
chain: B1 chain with Y1N, G52V, N54R, V56L, R104K
notes: as for B1
B5: Human IL-18BP (amino acids 31-194) (receptor)
chain: TPVSQTTTAATASVRSTKDPCPSQPPVFPAAKQCPALEVTWPEVEVPLNGTLSLSCVACSRFPNFSILYWLGNGSFIEHLPGRLWEGSTSRERGSTGTQLCKALVLEQLTPALHSTNFSCVLVDPEQVVQRHVVLAQLWAGLRATLPPTQEALPSSHSSPQQQGGLNDIFEAQKIEWHEHHHHHH
modifications: biotin on the AviTag (BirA ligase) where used biotinylated
B6: hA8 (ligand)
chain: T3 sequence with K8R, M51K, S55K, G59A, M60Q, S105D, D110K, N111H, V153I
notes: Human DR-IL-18 variant; display fusion not written
B7: hCS2 (ligand)
chain: T3 sequence with M51T, S55K, G59A, M60K, S105D, D110K, N111H, V153I
notes: Human DR-IL-18 consensus variant; E. coli recombinant with C-terminal hexahistidine tag in SPR; fusion and tag not written

How the values were obtained:
[1] = target: T1, Mouse IL-18BP (amino acids 31-194); assay: SPR; end of the range tied to mA7 by Table 9
[2] = target: T1, Mouse IL-18BP (amino acids 31-194); assay: SPR; KD ratio normalized to WT IL-18; lower end taken as mE8 (lowest ratio in Table 9)
[3] = target: T2, Mouse IL-18Rα ectodomain (amino acids …); assay: SPR; end of the range tied to mE8 by Table 9
[4] = target: T1, Mouse IL-18BP (amino acids 31-194); assay: SPR
Experimental: Experiments were conducted using a Biacore T100 and carried out at 25° C. Biotinylated IL-18Rα or IL-18BP were immobilized onto a Biacore biotin capture chip (Series S CAP sensor chip, GE Healthcare) to yield an Rmax of ~50 RU (IL-18Rα) or ~10 RU (IL-18BP). Measurements were made with serial dilutions of the IL-18 variants in HEPES buffered Saline-P+ buffer (10 mM HEPES pH 7.4, 150 mM NaCl, 0.005% surfactant P20). The surface was regenerated by three 60-sec injections of regeneration buffer (¾ (v/v) 8 M guanidine hydrochloride with ¼ (v/v) 1 M sodium hydroxide). Experiments were performed in multiple channels simultaneously for increased observations. All data were analyzed with the Biacore T100 evaluation software version 2.0 with a 1:1 Langmuir binding model.
As the human and mouse interspecies cross-reactivity of IL-18 for IL-18Rα is poor, murine equivalents of the DR-IL-18 variants that could be used for studies in mice were created. Similar to the approach taken for hIL-18 above, a combinatorial library of mIL-18 variants randomizing a similar set of mIL-18Rα/mIL-18BP contact residues (Table 3) was created, yielding a library of 4 × 10⁸ transformants. Directed evolution was performed on this library similar to how it was performed with the human IL-18 library; the selection strategy is summarized in FIG. 10A.

[5] = target: T1, Mouse IL-18BP (amino acids 31-194); assay: SPR; end of the range tied to mC1 by Table 9
[6] = target: T3, Human Interleukin-18 (mature form), …; assay: cell-based or functional assay
[7] = target: B5; assay: on-yeast binding isotherm, flow cytometry

In the case of B1, the Kd [1] is reported as 14 µM.

In the case of B2, the “IL-18 BP:Ra Dissociation Constant Ratio” value [2] is reported as 9.3e+06 and the Kd [3] is reported as 0.0017 µM.

B3 was tested, and the Kd [4] was 11 µM.

B4 was tested, and the Kd [5] was 29 µM.

For B5, the “IC50 of recombinant IL-18BP on the IL-18 HEK-Blue reporter signal (hIL-18 fixed at 5 nM)” value [6] was 0.003 µM.

In the case of B6, the EC50 [7] is reported as > 1 µM.

For B7, the EC50 [7] was > 1 µM.
